Data reported in publication PMC4499774.

Target: GST-MED4 CsoS2 (pFC005) (Prochlorococcus marinus str. MED4)
Experiment: pull-down; E. coli co-expressing GST-MED4 CsoS2 (pFC005) with CsoS1 and CsoS1D (pFC119); Glutathione-Sepharose magnetic beads; elution by SDS-PAGE, densitometry and Western blot

GST-MED4 CsoS2 (pFC005) (Prochlorococcus marinus str. MED4), sequence (Q7V2C8 whole entry): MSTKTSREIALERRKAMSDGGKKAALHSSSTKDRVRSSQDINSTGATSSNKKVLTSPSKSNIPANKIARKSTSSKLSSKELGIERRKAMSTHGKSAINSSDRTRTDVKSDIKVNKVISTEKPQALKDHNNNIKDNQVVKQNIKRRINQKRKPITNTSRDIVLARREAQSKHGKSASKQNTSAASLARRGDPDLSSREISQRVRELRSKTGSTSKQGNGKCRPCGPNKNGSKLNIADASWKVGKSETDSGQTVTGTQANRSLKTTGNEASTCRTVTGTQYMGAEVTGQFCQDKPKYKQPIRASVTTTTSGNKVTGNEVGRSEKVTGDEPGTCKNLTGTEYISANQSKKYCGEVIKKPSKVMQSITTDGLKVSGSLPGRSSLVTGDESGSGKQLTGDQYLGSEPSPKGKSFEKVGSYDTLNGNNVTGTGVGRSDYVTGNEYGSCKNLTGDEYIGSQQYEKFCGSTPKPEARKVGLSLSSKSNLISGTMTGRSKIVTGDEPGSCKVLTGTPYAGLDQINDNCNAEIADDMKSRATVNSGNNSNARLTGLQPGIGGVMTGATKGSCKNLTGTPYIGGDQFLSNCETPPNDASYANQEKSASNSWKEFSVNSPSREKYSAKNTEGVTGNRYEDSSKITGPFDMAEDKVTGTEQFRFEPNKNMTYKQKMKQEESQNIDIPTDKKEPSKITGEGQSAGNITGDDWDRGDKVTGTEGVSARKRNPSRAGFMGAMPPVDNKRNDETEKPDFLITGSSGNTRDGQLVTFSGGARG

molar ratio of CsoS1D to GST-CsoS2 in the elution fraction (densitometry): 5 molar ratio
B1: MED4 CsoS1D co-expressed with GST-MED4 CsoS2 (pFC119) (natural protein)
chain: MEPTSSLNRGDRKKGSSLVTGSEVQSQSNGASCFITTDSEKSLVSRQASQVEQIELRTYVFLDSLQPQLAAYMGTVSRGFLPIPGDSCLWMEVSPGMAVHRVTDIALKASNVRLGQMIVERAFGSLALYHKDQSTVLHSGDVVLDAIGSEVRKRTKPSTSWTEVICAITPDHAVLINRQNRSGSMIQSGMSMFILETEPAGYVLKAANEAEKSANITIIDVKAVGAFGRLTLAGKEGDVEEAAAAAIRAIDQISNY
